Data on eight molecules can be found in US20190240316A1 (published 2019).

Where a chain is given by its changes, count along the chain named.

By Kd is commonly meant the constant that tells how readily two partners part at equilibrium. By EC50 is commonly meant the concentration giving half of the maximal effect.

To fix the notation:
B1: 13A8 (Fab, V domains shown)
VH: QVQLVESGGGVVQPGKSLRLSCAASGYIFSSYDMHWVRQAPGKGLEWVAVISFDGTTQHYADSVRGRFTVSRDNSQNTVFLQMNSLRPEDTAVYYCVKEYVIVSTFFDYWGQGTLVTVSS
VL: DIVMTQSPSSLSASVGDRVTITCRASQGIRNALGWYQHKPGKAPKVLIYAASRLQSGVPSRFSGSGSGTDFTLTISSLQPEDFATYYCLQDFNYPWTFGHGTKVEIK
B2: 3J20 (Fab, V domains shown)
VH: EVQLVESGGGLVQPGGSLRLSCAASGFTFSSFTMNWVRQAPGKGLQWVSTISGSGGLTYYADSVKGRFTISRDNSKNTLSLQMNSLRAEDTAVYYCARDLEFTVTSYGGYYFEYWGQGTLVTVSS
VL: not shown
B3: 14N4 (Fab, V domains shown)
VH: QVQLVESGGGLIQPGGSLRLSCAVSGFTVSSKYMTWVRQAPGKGLEWVSVIYGGGSTYYADSVVGRFTISRDNSKNTLYLQMNSLRAEDTAVYYCASRLGVRATTGDLDYWGQGTLVTVSS
VL: QIVMTQSPSTLSASVGDRVTITCRASQSISSWLAWYQQKPGKAPKLLIYDASSLESGVPSRFSGSGSGTEFTLTISSLQPDDFATYYCQQYNTYSWWTFGQGTKVEIK
B4: 13A8 (antibody, V domains shown)
VH: B1 VH
VL: B1 VL
B5: Motavizumab (antibody, V domains shown)
VH: QVTLRESGPALVKPTQTLTLTCTFSGFSLSTAGMSVGWIRQPPGKALEWLADIWWDDKKHYNPSLKDRLTISKDTSKNQVVLKVTNMDPADTATYYCARDMIFNFYFDVWGQGTTVTVSS
VL: DIQMTQSPSTLSASVGDRVTITCSASSRVGYMHWYQQKPGKAPKLLIYDTSKLASGVPSRFSGSGSGTEFTLTISSLQPDDFATYYCFQGSGYPFTFGGGTKVEIK
B6: Palivizumab (antibody, V domains shown)
VH: B5 VH with A32S, H60D, D67S, D100S, F103T, F105W, Q112A
VL: B5 VL with S24K, A25C, S26Q, S27L, R28S, V103L
B7: 3J20 (antibody, V domains shown)
VH: B2 VH
VL: not shown
B8: 14N4 (antibody, V domains shown)
VH: B3 VH
VL: B3 VL

In one assay the target is FFL_001. In words: SPR. Background: Surface plasmon resonance follows binding to a sensor surface in real time, without labels.
Turning to B1, the affinity, expressed as Kd, was 0.2 nM.

As to B2, binding was put at a Kd of 1.05 nM. This Kd is about 5.2-fold higher than that of the molecule before.

In turn, B3 gave a Kd of 1.37 nM.

A further assay deals with FFL_001. In words: ELISA; printed as ng/uL.
B4 had a concentration for a half-maximal effect (EC50) of 17.9 µg/mL.

Consider B5, for which a half-maximal response (EC50) required 10.4 µg/mL.

For B6, a half-maximal effect (EC50) was put at 49 µg/mL. This EC50 lies about 4.7-fold higher than the previous one.

B7 returned an EC50 of 11.1 µg/mL.

For the molecule B8, the EC50 came to 19.3 µg/mL.

The target of another assay is RPM. In words: ELISA; printed as ng/uL. For orientation: An ELISA detects its analyte on a solid surface through an enzyme-linked reagent.
Molecule B4 yielded an EC50 of 14.8 µg/mL.

B5 gave an EC50 of 16.7 µg/mL.

Consider B6, for which a half-maximal effect (EC50) was put at 26.1 µg/mL.

With B7, the EC50 turned out to be 12.7 µg/mL.

With B8, the EC50 was 7.4 µg/mL. Compared with the last molecule, the EC50 is about 1.7-fold lower.
